In patent publication US20070134657A1, “Methods and compositions relating to gradient exposed cells” (GENERAL HOSPITAL CORPORATION, THE, priority 2002, published 2007):

Columns and labels:
[1] = test system: T-cell; details: response to SDF-1; cited from earlier work
[2] = test system: human neutrophils; test: Effect of signaling pathway inhibitors on directional neutrophil migration in IL-8 gradients (microfluidic device); type: cell-based; details: pretreated cells; IL-8 gradients in which chemotaxis and fugetaxis were seen
Description: Microfluidic Migration Assay and Timelapse Microscopy: Neutrophils (1×10^3 cells) were placed uniformly across the migration channel and allowed to migrate under a linear gradient of human Interleukin-8 (72 a.a.; PeproTech, Rocky Hill, N.J.) in IMDM with 0.5% (w/v) FCS flowing at 0.1 mm/sec. […] Brightfield images were taken every 30 seconds using a C4742-95 Hamamatsu digital camera (Hamamatsu, Japan) controlled by IPLab 3.6.1 (Scanalytics, Fairfax, Va.). Cell movement was always observed at a set point along the migration channel. Gradients were also calibrated at this set point. Migration was quantified for all cells across the gradient.
Signaling Pathway Inhibitors: Cells were treated with pertussis toxin (100 ng/mL; 30 minutes at 37° C.), wortmannin (1 μM, 10 μM; 20 minutes at 37° C., 8-Br-cAMP (1 mM; 15 minutes at room temperature), 8-Br-cGMP (1 mM; 15 minutes at room temperature) (Sigma-Aldrich), or the CXCR2 non-peptide antagonist, SB225002 (1 pM, 100 pM, 1 nM, or 1 μM for 15 minutes at 37° C.; Calbiochem, Calif.). Immediately after treatment cells were seeded in migration channel of the microfluidic device and allowed to migrate as described above.
Since receptor occupancy is known to play a role in directional decision making and gradient sensing in the context of chemotaxing eukaryotic cells, it was postulated that chemokine receptor occupancy by a chemokine might also play a critical role in the decision of a cell to move up or down a chemokine gradient. Thus, a SB25002, the specific non-peptide antagonist of the IL-8 receptor, CXCR2 was utilized to examine this postulate. Neutrophils were pretreated with SB225002 at concentrations between 1 pM and 1 μM and then exposed to 0 to 1.2 μM gradients of IL-8 in microfabricated devices as described above. Videos of cell migration were analysed using MetaMorph and MathLab software to generate normalized angular frequencies determined for cells migrating in each of the three sectors of the gradient. The absence of inhibitor generates a normalized angular frequency of 1.0 whereas inhibition of fugetactic or chemotactic angular frequencies results in a normalized frequency of <1.0 and augmentation of either directional response results in a value greater than 1. This analysis allows to precisely quantitate the effect of a given concentration of inhibitor on the directional decision of the cell to move up or down a gradient. […] Furthermore, although IL-8 binds to both CXCR2 and CXCR1 on the cell surface, of the human neutrophil bi-directional signaling was evidently critically dependent on CXCR2.
It had been previously shown that the signaling pathway for chemotaxis is distinct from that for chemorepulsion or fugetaxis. […] The study of neutrophil migration in microfabricated devices allows to examine precisely the effects of these inhibitors on quantitative parameters of cell migration including the directional bias of cells in the context of precisely defined and stable chemokine gradients. Primary human neutrophils were pretreated with known inhibitors of the chemokine signal transduction pathway including pertussis toxin, wortmannin, genistein, 8-Br-cAMP and 8-Br-cGMP and then exposed to IL-8 gradients in which chemotaxis and fugetaxis were seen. The effect of the inhibitor on directional migration towards or away from the chemokine was quantitated by determining the directional motility index of cells migrating in the context of these gradients. Movement vector angles corresponding to movement up the gradient (30 to 150 degrees—see FIG. 13) were defined as chemotactic and measured movement vector angles corresponding to movement down the gradient (210 to 330 degrees—see figure) were defined as fugetactic. The directional choice of cells to move up or down a chemokine gradient were therefore compared in the presence and the absence of an inhibitor. […]

[3] = test system: rat neutrophils; test: Intravital microscopy of rat neutrophil migration in response to diffusive CINC-1 gradients in mesentery; type: in vivo
Method: Intravital Microscopy: Male Sprague Dawley rats (200-300 g) were purchased from Harlan-Olac (Bicester, U.K.). Male rats were prepared for intravital microscopy. Briefly, following sedation with i.m. Hypnorm (fentanyl-fluanisone mixture, 0.1 ml; Janssen-Cilag, High Wycombe, U.K.), animals were anesthetized with i.v. sodium pentobarbitone (30 mg/kg loading dose followed by 30 mg/kg/h; Rhône Mérieux, Harlow, U.K). The animals were maintained at 37° C. on a custom-built heated microscope stage. Following midline abdominal incision, the mesentery adjoining the terminal ileum was carefully arranged over a glass window in the microscope stage and pinned in position. The mesentery was kept warm and moist by continuous application of Tyrode's balanced salt solution (Sigma Aldrich). Mesenteric post-capillary venules (15-40 μm in diameter) were viewed on an upright fixed-stage microscope (Axioskop F S, Carl Zeiss, Welwyn Garden City, U.K.) fitted with water immersion objectives. Images were captured with a digital camera (C5810-01, Hamamatsu Photonics U.K., Enfield, U.K.) for viewing on a monitor (PVM-1453 MD, Sony U.K., Weybridge, U.K.) and storage by videocassette recorder (AG-MD830E, Panasonic U.K., Bracknell, U.K.). […] Firmly adherent leukocytes were defined as those that remained stationary for at least 30 s within a 100-μm segment of a venule. Extravasated leukocytes were defined as those in the perivenular tissue adjacent to, but remaining within a distance of 150 μm of a 100-μm length of vessel segment under study. After baseline readings of rolling, adhesion and transmigration were taken; CINC-1 at final concentrations of 10^−9 M, […] or 10^−7M (Peprotech) was applied topically to the mesenteric tissue in the superfusion buffer. Leukocyte responses within the chosen vessels were quantified for up to 180 minutes, during which the topical application of CINC-1 was maintained. In each animal, multiple vessel segments from appropriate vessels were quantified. Videos of migrating cells were constucted for quantitative and mathematical analysis as described above; at the end of certain in vivo experiments, the mesentery was stained with acridine orange (Sigma Aldrich), a nuclear dye, scanned with a 488 nm laser line generated from an Argon laser, and observed by confocal microscopy (LSM5 PASCAL, Axioskop II FS, Carl Zeiss) to verify that migrating cells were neutrophils.
Mathematical Modeling of Continuous Gradients in vivo: The chemokine concentration profile in the mesentery at steady state was predicted using a novel in vivo model based on classical diffusion equations applied on a spherical model of the postcapillary venule, and the assumption that the receptor-dependent transport of the chemokine by the endothelial cells is the main mechanism for generating the gradient the vicinity of postcapillary venules. The steady state solution was calculated for the concentration gradient around a sphere in a homogenous medium, with the two boundary conditions: 1) the concentration far from the sphere is constant, and 2) the chemokine flux across the surface of the sphere also constant. […] Thus, the steady state concentration C at distance r from the capillary wall was calculated as: [formula] […]

Nc1ncnc2c1nc(Br)n2[C@@H]1O[C@@H]2COP(=O)(O)O[C@H]2[C@H]1O [8-Br-cAMP]
sensitivity of T-cell fugetaxis to inhibition, compared with chemotaxis [1]: differentially more sensitive to inhibition
effect on neutrophil chemotaxis (angular frequency, movement up the gradient) [2]: augmented
effect on neutrophil fugetaxis (angular frequency, movement down the gradient) [2]: selectively inhibited

O=c1c(-c2ccc(O)cc2)coc2cc(O)cc(O)c12 [genistein]
sensitivity of T-cell chemotaxis to inhibition, compared with fugetaxis [1]: differentially more sensitive to inhibition

B1: CINC-1: rat IL-8 orthologue, cytokine induced neutrophil chemoattractant-1, signals via CXCR2 (protein, UniProt P14095 25-96, looked up)
Growth-regulated alpha protein: APVANELRCQCLQTVAGIHFKNIQSLKVMPPGPHCTQTEVIATLKNGREACLDPEAPMVQKIVQKMLKGVPK
neutrophil response to superfused chemokine ([3]; 1 nM): minimal neutrophil adhesion to the luminal surface of the venule and transmigration
neutrophil response to superfused chemokine ([3]; 100 nM): accumulation of neutrophils around the vessel without transmigration
mean chemotropism index (MCI) in vivo ([3]; diffusive gradient with peak concentration of 10 nM): +0.32+/−0.06
mean chemotropism index (MCI) in vivo ([3]; gradient replaced with peak concentration of 100 nM): −0.35+/−0.12
peak chemokine concentration at which peak transendothelial migration of neutrophils from the blood occurred ([3]; superfusion at 1 nM, 10 nM or 100 nM for 90 minutes): 10 nM
